Source: patent US20220402983A1 (Janssen / Centocor, published 2022)
*1 amine or outer side, *2 acyl side, *3 side chain or, on linkers, in order; H or OH if unused. Bridges are numbered along the chain shown (N, C = ends). [ ]: non-standard residue; d: D form. (N-(imidazol-2-yl)methyl)Asn = N-(imidazol-2-yl)methyl-asparagine, O=C(C[C@H](N[*:1])C(=O)[*:2])NCc1ncc[nH]1; (N-(3-aminophenyl))Asn = N-(3-aminophenyl)-asparagine, O=C(C[C@H](N[*:1])C(=O)[*:2])Nc1cccc(N[*:3])c1; (N-(3-Pyz))Asn = N-pyrazol-3-yl-asparagine, O=C(C[C@H](N[*:1])C(=O)[*:2])Nc1cc[nH]n1; dPhe(3-NH2) = D-3-aminophenylalanine, O=C([C@@H](Cc1cccc(N[*:3])c1)N[*:1])[*:2]; Trp(7-Me) = Cc1cccc2c(C[C@H](N)C(=O)O)c[nH]c12; (N-Pyr)Asn = N-pyrrolidin-3-yl-asparagine; dPhe(4-NH2) = Nc1ccc(C[C@@H](N)C(=O)O)cc1; (N-Pip)Asn = N-piperidin-4-yl-asparagine; 2Nal = N[C@@H](Cc1ccc2ccccc2c1)C(=O)O; AEF = NCCOc1ccc(C[C@H](N)C(=O)O)cc1; αMeF = C[C@](N)(Cc1ccccc1)C(=O)O; 3Pal = N[C@@H](Cc1cccnc1)C(=O)O; Pen = CC(C)(S)[C@H](N)C(=O)O; αMeK = C[C@](N)(CCCCN)C(=O)O; αMeC = C[C@](N)(CS)C(=O)O; Thp = NC1(C(=O)O)CCOCC1; Abu = CC[C@H](N)C(=O)O

B1: Compound No. 124 (peptide)
peptide: Ac-[dR][Pen]NT[Trp(7-Me)]K(Ac)[Pen][AEF][2Nal][Thp]EN[αMeF]-NH2
modifications: disulfide 2-7
SMILES: CC(=O)NCCCC[C@@H]1NC(=O)[C@H](Cc2c[nH]c3c(C)cccc23)NC(=O)[C@H]([C@@H](C)O)NC(=O)[C@H](CC(N)=O)NC(=O)[C@@H](NC(=O)[C@@H](CCCNC(=N)N)NC(C)=O)C(C)(C)SSC(C)(C)[C@@H](C(=O)N[C@@H](Cc2ccc(OCCN)cc2)C(=O)N[C@@H](Cc2ccc3ccccc3c2)C(=O)NC2(C(=O)N[C@@H](CCC(=O)O)C(=O)N[C@@H](CC(N)=O)C(=O)N[C@@](C)(Cc3ccccc3)C(N)=O)CCOCC2)NC1=O
B2: Compound No. 120 (peptide)
peptide: CNTXQCFXKKNX
modifications: Ac-[Cys]-N-T-[W(7-Me)]-Q-[aMeCys]-Phe[4-(2-aminoethoxy)]-[2-Nal]-[a-MeLys]-[Lys(Ac)]-N-[THP]-NH2; cyclized: Cys-aMeCys disulfide bond
B3: Compound No. 117 (peptide)
peptide: Ac-CNT[Trp(7-Me)]K(Ac)[αMeC][AEF][2Nal][αMeK]K(Ac)N[Thp]-NH2
modifications: disulfide 1-6
SMILES: CC(=O)NCCCC[C@@H]1NC(=O)[C@H](Cc2c[nH]c3c(C)cccc23)NC(=O)[C@H]([C@@H](C)O)NC(=O)[C@H](CC(N)=O)NC(=O)[C@@H](NC(C)=O)CSSC[C@@](C)(C(=O)N[C@@H](Cc2ccc(OCCN)cc2)C(=O)N[C@@H](Cc2ccc3ccccc3c2)C(=O)N[C@@](C)(CCCCN)C(=O)N[C@@H](CCCCNC(C)=O)C(=O)N[C@@H](CC(N)=O)C(=O)NC2(C(N)=O)CCOCC2)NC1=O
B4: Compound No. 122 (peptide)
peptide: Ac-CNTWK(Ac)[αMeC][AEF][2Nal][αMeK]K(Ac)N[αMeF]-NH2
modifications: disulfide 1-6
SMILES: CC(=O)NCCCC[C@@H]1NC(=O)[C@H](Cc2c[nH]c3ccccc23)NC(=O)[C@H]([C@@H](C)O)NC(=O)[C@H](CC(N)=O)NC(=O)[C@@H](NC(C)=O)CSSC[C@@](C)(C(=O)N[C@@H](Cc2ccc(OCCN)cc2)C(=O)N[C@@H](Cc2ccc3ccccc3c2)C(=O)N[C@@](C)(CCCCN)C(=O)N[C@@H](CCCCNC(C)=O)C(=O)N[C@@H](CC(N)=O)C(=O)N[C@@](C)(Cc2ccccc2)C(N)=O)NC1=O
B5: Compound No. 137 (peptide)
peptide: Ac-[dR][Pen]QTWQ[Pen][AEF][2Nal][Thp]EN[(N-(imidazol-2-yl)methyl)Asn]-NH2
modifications: disulfide 2-7
SMILES: CC(=O)N[C@H](CCCNC(=N)N)C(=O)N[C@@H]1C(=O)N[C@@H](CCC(N)=O)C(=O)N[C@@H]([C@@H](C)O)C(=O)N[C@@H](Cc2c[nH]c3ccccc23)C(=O)N[C@@H](CCC(N)=O)C(=O)N[C@H](C(=O)N[C@@H](Cc2ccc(OCCN)cc2)C(=O)N[C@@H](Cc2ccc3ccccc3c2)C(=O)NC2(C(=O)N[C@@H](CCC(=O)O)C(=O)N[C@@H](CC(N)=O)C(=O)N[C@@H](CC(=O)NCc3ncc[nH]3)C(N)=O)CCOCC2)C(C)(C)SSC1(C)C
B6: Compound No. 123 (peptide)
peptide: Ac-[dR][Abu]QTWQC[AEF][2Nal][Thp]EN[αMeF]-NH2
modifications: thioether 2-7
B7: Compound No. 128 (peptide)
peptide: Ac-[dR][Pen]QTWQ[Pen][AEF][2Nal][Thp]EN[(N-Pyr)Asn]-NH2
modifications: disulfide 2-7
B8: Compound No. 116 (peptide)
peptide: Ac-[Pen]NT[Trp(7-Me)]K(Ac)[Pen][AEF][2Nal][αMeK]K(Ac)N[αMeF][3Pal]-NH2
modifications: disulfide 1-6
SMILES: CC(=O)NCCCC[C@@H]1NC(=O)[C@H](Cc2c[nH]c3c(C)cccc23)NC(=O)[C@H]([C@@H](C)O)NC(=O)[C@H](CC(N)=O)NC(=O)[C@@H](NC(C)=O)C(C)(C)SSC(C)(C)[C@@H](C(=O)N[C@@H](Cc2ccc(OCCN)cc2)C(=O)N[C@@H](Cc2ccc3ccccc3c2)C(=O)N[C@@](C)(CCCCN)C(=O)N[C@@H](CCCCNC(C)=O)C(=O)N[C@@H](CC(N)=O)C(=O)N[C@@](C)(Cc2ccccc2)C(=O)N[C@@H](Cc2cccnc2)C(N)=O)NC1=O
B9: Compound No. 133 (peptide)
peptide: Ac-[dR][Pen]QTWQ[Pen][AEF][2Nal][Thp]EN[(N-(3-Pyz))Asn]-NH2
modifications: disulfide 2-7
SMILES: CC(=O)N[C@H](CCCNC(=N)N)C(=O)N[C@@H]1C(=O)N[C@@H](CCC(N)=O)C(=O)N[C@@H]([C@@H](C)O)C(=O)N[C@@H](Cc2c[nH]c3ccccc23)C(=O)N[C@@H](CCC(N)=O)C(=O)N[C@H](C(=O)N[C@@H](Cc2ccc(OCCN)cc2)C(=O)N[C@@H](Cc2ccc3ccccc3c2)C(=O)NC2(C(=O)N[C@@H](CCC(=O)O)C(=O)N[C@@H](CC(N)=O)C(=O)N[C@@H](CC(=O)Nc3cc[nH]n3)C(N)=O)CCOCC2)C(C)(C)SSC1(C)C
B10: Compound No. 114 (peptide)
peptide: Ac-[Pen]NT[Trp(7-Me)]K(Ac)[Pen][AEF][2Nal][αMeK]K(Ac)N[αMeF][dPhe(4-NH2)]-NH2
modifications: disulfide 1-6
SMILES: CC(=O)NCCCC[C@@H]1NC(=O)[C@H](Cc2c[nH]c3c(C)cccc23)NC(=O)[C@H]([C@@H](C)O)NC(=O)[C@H](CC(N)=O)NC(=O)[C@@H](NC(C)=O)C(C)(C)SSC(C)(C)[C@@H](C(=O)N[C@@H](Cc2ccc(OCCN)cc2)C(=O)N[C@@H](Cc2ccc3ccccc3c2)C(=O)N[C@@](C)(CCCCN)C(=O)N[C@@H](CCCCNC(C)=O)C(=O)N[C@@H](CC(N)=O)C(=O)N[C@@](C)(Cc2ccccc2)C(=O)N[C@H](Cc2ccc(N)cc2)C(N)=O)NC1=O
B11: Compound No. 121 (peptide)
peptide: Ac-CNTWK(Ac)[αMeC][AEF][2Nal][αMeK]K(Ac)N[Thp]-NH2
modifications: disulfide 1-6
SMILES: CC(=O)NCCCC[C@@H]1NC(=O)[C@H](Cc2c[nH]c3ccccc23)NC(=O)[C@H]([C@@H](C)O)NC(=O)[C@H](CC(N)=O)NC(=O)[C@@H](NC(C)=O)CSSC[C@@](C)(C(=O)N[C@@H](Cc2ccc(OCCN)cc2)C(=O)N[C@@H](Cc2ccc3ccccc3c2)C(=O)N[C@@](C)(CCCCN)C(=O)N[C@@H](CCCCNC(C)=O)C(=O)N[C@@H](CC(N)=O)C(=O)NC2(C(N)=O)CCOCC2)NC1=O
B12: Compound No. 127 (peptide)
peptide: Ac-[dR][Pen]QTWQ[Pen][AEF][2Nal][Thp]EN[(N-Pip)Asn]-NH2
modifications: disulfide 2-7
B13: Compound No. 118 (peptide)
peptide: Ac-CNT[Trp(7-Me)]K(Ac)[αMeC][AEF][2Nal][αMeK]K(Ac)N[αMeF]-NH2
modifications: disulfide 1-6
SMILES: CC(=O)NCCCC[C@@H]1NC(=O)[C@H](Cc2c[nH]c3c(C)cccc23)NC(=O)[C@H]([C@@H](C)O)NC(=O)[C@H](CC(N)=O)NC(=O)[C@@H](NC(C)=O)CSSC[C@@](C)(C(=O)N[C@@H](Cc2ccc(OCCN)cc2)C(=O)N[C@@H](Cc2ccc3ccccc3c2)C(=O)N[C@@](C)(CCCCN)C(=O)N[C@@H](CCCCNC(C)=O)C(=O)N[C@@H](CC(N)=O)C(=O)N[C@@](C)(Cc2ccccc2)C(N)=O)NC1=O
B14: Compound No. 130 (peptide)
peptide: Ac-[dR][Pen]QTWQ[Pen][AEF][2Nal][Thp]EN[(N-(3-aminophenyl))Asn]-NH2
modifications: disulfide 2-7
SMILES: CC(=O)N[C@H](CCCNC(=N)N)C(=O)N[C@@H]1C(=O)N[C@@H](CCC(N)=O)C(=O)N[C@@H]([C@@H](C)O)C(=O)N[C@@H](Cc2c[nH]c3ccccc23)C(=O)N[C@@H](CCC(N)=O)C(=O)N[C@H](C(=O)N[C@@H](Cc2ccc(OCCN)cc2)C(=O)N[C@@H](Cc2ccc3ccccc3c2)C(=O)NC2(C(=O)N[C@@H](CCC(=O)O)C(=O)N[C@@H](CC(N)=O)C(=O)N[C@@H](CC(=O)Nc3cccc(N)c3)C(N)=O)CCOCC2)C(C)(C)SSC1(C)C
B15: Compound No. 115 (peptide)
peptide: Ac-[Pen]NT[Trp(7-Me)]K(Ac)[Pen][AEF][2Nal][αMeK]K(Ac)N[αMeF][dPhe(3-NH2)]-NH2
modifications: disulfide 1-6
SMILES: CC(=O)NCCCC[C@@H]1NC(=O)[C@H](Cc2c[nH]c3c(C)cccc23)NC(=O)[C@H]([C@@H](C)O)NC(=O)[C@H](CC(N)=O)NC(=O)[C@@H](NC(C)=O)C(C)(C)SSC(C)(C)[C@@H](C(=O)N[C@@H](Cc2ccc(OCCN)cc2)C(=O)N[C@@H](Cc2ccc3ccccc3c2)C(=O)N[C@@](C)(CCCCN)C(=O)N[C@@H](CCCCNC(C)=O)C(=O)N[C@@H](CC(N)=O)C(=O)N[C@@](C)(Cc2ccccc2)C(=O)N[C@H](Cc2cccc(N)c2)C(N)=O)NC1=O
B16: Compound No. 119 (peptide)
peptide: CNTXQCFXKKNF
modifications: Ac-[Cys]-N-T-[W(7-Me)]-Q-[aMeCys]-Phe[4-(2-aminoethoxy)]-[2-Nal]-[a-MeLys]-[Lys(Ac)]-N-[a-MePhe]-NH2; cyclized: Cys-aMeCys disulfide bond

Biological target: T1, human IL-23R (interleukin-23 receptor) (human, UniProt Q5VWK5 24-629)
T1 sequence (looked up): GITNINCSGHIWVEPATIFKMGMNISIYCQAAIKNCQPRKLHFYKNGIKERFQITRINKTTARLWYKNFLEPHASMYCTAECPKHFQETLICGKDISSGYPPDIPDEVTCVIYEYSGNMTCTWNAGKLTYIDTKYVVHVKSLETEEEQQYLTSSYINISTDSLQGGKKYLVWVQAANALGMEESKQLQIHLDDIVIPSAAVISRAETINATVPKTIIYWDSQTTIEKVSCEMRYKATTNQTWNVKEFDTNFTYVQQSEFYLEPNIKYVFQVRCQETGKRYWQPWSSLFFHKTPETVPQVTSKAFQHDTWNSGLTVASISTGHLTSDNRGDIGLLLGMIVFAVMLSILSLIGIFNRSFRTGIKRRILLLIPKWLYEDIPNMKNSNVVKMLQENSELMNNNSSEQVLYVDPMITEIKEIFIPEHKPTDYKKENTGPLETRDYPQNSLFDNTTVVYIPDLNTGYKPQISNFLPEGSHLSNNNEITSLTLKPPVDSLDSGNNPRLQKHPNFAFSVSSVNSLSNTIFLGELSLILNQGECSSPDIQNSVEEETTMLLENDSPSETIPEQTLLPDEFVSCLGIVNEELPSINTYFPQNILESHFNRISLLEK
Experiment: cell-based or functional assay

How did the “PBMC pSTAT3 IC50 (nM)” value turn out when B1 was run?
Its value is 11 nM.

How did the “PBMC pSTAT3 IC50 (nM)” value turn out when B2 was run?
Its value is 4.9 nM.

For B3, which “PBMC pSTAT3 IC50 (nM)” value is on record?
Its value is 7.1 nM.

For B4, which “PBMC pSTAT3 IC50 (nM)” value is on record?
Its value is 54 nM.

For B5, which “PBMC pSTAT3 IC50 (nM)” value is on record?
Its value is 14 nM.

Which “PBMC pSTAT3 IC50 (nM)” value does the source give for B6 here?
Its value is 11 nM.

For B7, which “PBMC pSTAT3 IC50 (nM)” value is on record?
The value was 51 nM.

B8 was tested. Which “PBMC pSTAT3 IC50 (nM)” value did it give?
The value was 20 nM.

Which “PBMC pSTAT3 IC50 (nM)” value does the source give for B9 here?
Its value is 21 nM.

With B10 as the binder, how does the “PBMC pSTAT3 IC50 (nM)” value read?
The value was 12 nM.

For B11, which “PBMC pSTAT3 IC50 (nM)” value is on record?
Its value is 41 nM.

How did the “PBMC pSTAT3 IC50 (nM)” value turn out when B12 was run?
Its value is 48 nM.

How did the “PBMC pSTAT3 IC50 (nM)” value turn out when B13 was run?
Its value is 30 nM.

B14 was tested. Which “PBMC pSTAT3 IC50 (nM)” value did it give?
Its value is 9.2 nM.

How did the “PBMC pSTAT3 IC50 (nM)” value turn out when B15 was run?
The value was 39 nM.

Which “PBMC pSTAT3 IC50 (nM)” value does the source give for B16 here?
The value was 5.3 nM.
